US7666414B2, “Methods for treating prostate cancer using modified antibodies to prostate-specific membrane antigen” (Cornell Research Foundation, Inc., priority 2001, dated 2010)
Residue numbers refer to the chain shown, from its start. Where two headings read alike, the source gives them in different places.

Experiments:
[1] = biological target: T1, LNCap membrane preparation (Homo sapiens, UniProt Q04609); test: ELISA for binding of J415 deimmunized antibodies to LNCap membrane preparation
T1 construct: ELISA plates were coated with LNCap membrane preparation; endogenous in cells; host or cells: LNCap (LNCaP) human prostate carcinoma cells, membrane preparation
T1 sequence (Q04609 whole entry): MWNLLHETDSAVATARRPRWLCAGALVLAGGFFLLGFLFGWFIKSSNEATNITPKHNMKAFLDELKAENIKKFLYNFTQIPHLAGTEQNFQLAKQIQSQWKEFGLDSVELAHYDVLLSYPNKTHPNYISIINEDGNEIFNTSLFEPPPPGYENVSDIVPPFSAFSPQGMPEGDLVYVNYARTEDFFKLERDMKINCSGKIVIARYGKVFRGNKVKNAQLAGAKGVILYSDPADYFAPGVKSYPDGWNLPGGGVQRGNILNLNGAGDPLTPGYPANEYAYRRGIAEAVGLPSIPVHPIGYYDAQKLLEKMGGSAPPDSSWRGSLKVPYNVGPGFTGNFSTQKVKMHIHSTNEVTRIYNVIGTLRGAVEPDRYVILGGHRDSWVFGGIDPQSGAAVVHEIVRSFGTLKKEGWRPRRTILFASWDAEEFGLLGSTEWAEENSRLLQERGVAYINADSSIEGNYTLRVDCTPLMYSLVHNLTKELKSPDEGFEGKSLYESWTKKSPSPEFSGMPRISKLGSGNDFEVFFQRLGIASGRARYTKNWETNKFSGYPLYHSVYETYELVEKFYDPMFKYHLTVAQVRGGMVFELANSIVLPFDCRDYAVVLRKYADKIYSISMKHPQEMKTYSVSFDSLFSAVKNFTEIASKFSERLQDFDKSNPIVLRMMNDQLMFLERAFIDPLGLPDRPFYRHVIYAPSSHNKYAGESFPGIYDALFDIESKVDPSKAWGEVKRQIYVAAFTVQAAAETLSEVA
Experimental: The J415 deimmunized antibodies (including various combinations of the deimmunized light chain and heavy chain subunits) were tested in an ELISA for binding to LNCap membrane preparation following the protocol as detailed above. ELISA plates were coated with LNCap membrane preparation and blocked with 5% BSA in phosphate buffered saline. Doubling dilutions of the J415 chimeric antibody (murine variable heavy and light chain regions fused to human constant heavy and light chain regions, respectively) and the deimmunized antibodies were applied. Detection was with horseradish peroxidase conjugated goat anti-human IgG and donkey anti-mouse for chimeric and mouse antibodies respectively. Color was developed with o-phenylene diamine substrate.

[2] = biological target: prostate specific membrane antigen (Homo sapiens, UniProt Q04609); test: Competitive binding sites on PSMA; conditions: relative to J591, J533, E99 site
prostate specific membrane antigen, sequence (Q04609 whole entry): as above
Text: To kill or ablate normal, benign hyperplastic, and cancerous prostate epithelial cells, a first antibody, e.g., a modified antibody, can be conjugated with a prodrug which is activated only when in close proximity with a prodrug activator. The prodrug activator is conjugated with a second antibody, e.g., a second modified antibody according to the present invention, preferably one that binds to a non-competing site on the prostate specific membrane antigen molecule. Whether two modified antibodies bind to competing or non-competing binding sites can be determined by conventional competitive binding assays. […] Monoclonal antibody J415, on the other hand, binds to a binding site that is non-competing with the site to which J591, J533, and E99 bind. Thus, for example, the first modified antibody can be one of J591, J533, and E99, and the second modified antibody can be J415. Alternatively, the first modified antibody can be J415, and the second modified antibody can be one of J591, J533, and E99. Drug-prodrug pairs suitable for use in the practice of the present invention are described in Blakely et al., “ZD2767, an Improved System for Antibody-directed Enzyme Prodrug Therapy That Results in Tumor Regressions in Colorectal Tumor Xenografts,” (1996) Cancer Research, 56:3287-3292, which is hereby incorporated by reference.

[3] = test system: PSMA-positive human LNCaP tumors; design: species or system nude mice; conditions: mouse, in vivo
Experimental: (§1) Prior to use, the cells were trypsinized, counted and suspended in Matrigel (Collaborative Biomedical Products, Bedford, Mass.). Nu/Nu Balb C mice 8-10 weeks of age were inoculated, in the right and left flanks, with a suspension of 5×10^6 LNCaP cells in Matrigel (BD Biosciences, Bedford Mass.). After a period of 14-18 days, tumors (100-300 mg) had developed. The PSMA-negative DU145 and PC3 cells were implanted in nude mice in an identical manner.
(§2) The PSMA-positive and PSMA-negative tumor bearing mice were injected, via the tail vein, with 80 KBq of the iodinated MAb (400 MBq/mg) in 200 μL of PBS (pH 7.4, 0.2% BSA). Groups of animals (3-8/group) were sacrificed after 2, 4 or 6 days. The major organs and tumors were recovered. The tissue samples were weighed and counted, with appropriate standards in an automatic NaI(Tl) counter. These measured relative activity data (cpm) were background corrected and expressed as a percentage of the injected dose per gram (% ID/g). […] J415, J591 and 7E11 were labeled with ^111In (100 MBq/mg). 80 KBq of the ^111In labeled MAbs were injected in groups of animals. The % ID/g in various organs and tumor tissues was determined at 2-6 days post injection in a similar way as described for ^131I labeled MAbs.
For the imaging studies, animals were injected with 2 MBq of ^111In-DOTA-J591. […]

[4] = test system: PSMA-positive human LNCaP tumors; test: Biodistribution of 131I labeled MAbs in nude mice bearing LNCaP tumors; conditions: mouse, in vivo
Experimental: as §1, §2

B1: DIVH4/DIVK5: deimmunized J415 heavy chain version 4 combined with deimmunized J415 light chain version 5 (antibody, V domains shown)
VH: EVKLEESGGGLVQPGGSMKISCVASGFTFSNYWMNWVRQSPEKGLEWVAEIRSQSNNFATHYAESVKGRVIISRDDSKSSVYLQMNSLRAEDTAVYYCTRRWNNFWGQGTTVTVSS
VL: NIVMTQFPKSMSASAGERMTLTCKASENVGTYVSWYQQKPTQSPKMLIYGASNRFTGVPDRFSGSGSGTDFILTISSVQAEDLVDYYCGQSYTFPYTFGGGTKLEMK
B1 was tested, and the “binding to LNCap as compared to the chimeric antibody” value [1] was “equivalent binding”.

B2: J533: murine monoclonal antibody to human PSMA, hybridoma ATCC HB-12127 (antibody, V domains shown)
VH: EVQLQQSGPELVKPGASVKMSCKASGYTFTGYVMHWVKQKPGQVLEWIGYINPYNDVTRYNGKFKGKATLTSDKYSSTAYMELSGLTSEDSAVYYCARGENWYYFDSWGRGATLTVSS
VL: DIVLTQSPASLAVSLGQRATISCRASESIDSYDNTFMHWYQQKPGQPPNLLIFRASILESGIPARFSGSGSGTDFTLTIYPVEADDVATYYCHQSIEDPYTFGGGTKLEIK
B2 was tested, and the “binding site on the prostate specific membrane antigen molecule” value (shortened to “binding site”) [2] was “bind to competing binding sites”.

B3: E99: murine monoclonal antibody to human PSMA, hybridoma ATCC HB-12101 (antibody, V domains shown)
VH: QVQLKESGPGLVASSQSLSITCTVSGFSLTAYGINWVRQPPGKGLEWLGVIWPDGNTDYNSTLKSRLNIFKDNSKNQVFLKMSSFQTDDTARYFCARDSYGNFKRGWFDFWGQGTTLTVSS
VL: NIVMTQSQKFMSTSPGDRVRVTCKASQNVGSDVAWYQAKPGQSPRILIYSTSYRYSGVPDRFTAYGSGTDFTLTITNVQSEDLTEYFCQQYNSYPLTFGAGTKLELK
With B3 the “binding site” value [2] was “bind to competing binding sites”.

B4: J415: murine monoclonal antibody to human PSMA, hybridoma ATCC HB-12109 (antibody, V domains shown)
VH: B1 VH with I20L, S87N, A94G, V95I, V112L
VL: B1 VL with A13I, A15V, M19V, T41E, S63T, G68A, A80T
With B4 the “binding site” value [2] was “non-competing”, the blood activity [3] was 2.63±0.23 % ID/g and the tumor/blood ratios [3] was “significantly higher”. For the same molecule, the blood activity [4] was “significantly lower compared to that of 7E11”, the tumor uptake [4] was 12.2±3.24 % injected dose/gram and the “tumor/blood and tumor/muscle ratios” value [4] was “significantly higher”.
